Results as given in PMC5435687 (Scientific Reports, 2017).

Test: SDS-PAGE of peptide solutions, band quantification (monomer fraction)
Assay type: physicochemical
Conditions: 1 µM HF488-labelled peptide in cell culture medium after HFIP pre-treatment; NuPAGE 4–12% Bis-Tris gel, fluorescence scan, ImageJ
Method: The lyophilized Aβ peptide powders were dissolved in hexafluoro-2-propanol to disrupt any aggregates[26] and monomerize the peptide. The solutions were vortexed briefly and aliquoted at 4 °C. The solvent in each aliquot was evaporated at 37 °C for 60 min using a RVC 2–18 CD Rotational Vacuum concentrator (Martin Christ, Germany). The remaining peptide films were snap frozen in liquid nitrogen and kept at −80 °C until further use. For concentration determinations the peptide film was dissolved in 1% ammonium hydroxide (v/v) and the absorption of the dye label was measured on a Cary 4000 UV-Vis Spectrophotometer (Agilent Technologies, Santa Clara, CA, US). Extinction coefficients of 70,000 M^−1cm^−1 at 504 nm and 250 000 M^−1cm^−1 at 649 nm was used for the HF488 and HF647 dye labels, respectively, according to the information provided by the manufacturer. Prior to each experiment one peptide film was dissolved in a small volume 1% ammonium hydroxide (v/v) and diluted with cell culture medium supplemented with 30 mM HEPES. […] The HF488 dye was excited by a 488 nm laser and emission detected through a 520/40 nm filter. After background correction, the gel bands corresponding to monomer, dimer and trimer species were quantified in ImageJ (NIH, Bethesda, Maryland, US) by integrated intensity of the respective bands.

Substance | monomer fraction by SDS-PAGE band intensities [%]
Aβ(1–40): Synthetic 40 residue amyloid-β peptide conjugated to HiLyte Fluor HF488 (or HF647) at the N-terminus, from Anaspec | 84
Aβ(1–42): Synthetic 42 residue amyloid-β peptide conjugated to HiLyte Fluor HF488 (or HF647) at the N-terminus, from Anaspec | 86
